Test results: patent US20260258147A1 (Merck Sharp & Dohme, published 2026)
Where a chain is given by its changes, count along the chain named.

B1: SV018.45B6.1G1 (antibody, V domains shown)
VH: QVQLLQSGAEVKKPGASVKVSCKASGYTFTTYGISWVRQAPGQGLEWLGWITAYNRNTNYAQKLQGRVTMTTDTSTSTSFMVLRSLRSDDTAVYYCARVGDSDAFDIWGQGTMVTVSS
VL: EIVMTQSPATLSLSPGERATLSCRTSQSVFNSFLSWYQQKPGQAPRLLLYGTSTRATGIPARFSGSGSGTDFTLTISSLQPEDFAVYYCQQDYKLPLTFGGGTKVEIK
notes: also called SV018.45.1G1
B2: SV018.20B12.1D1 (antibody, V domains shown)
VH: QVQLQESGPGLVKPSETLSLTCTVSGGSISSYYWSWIRQPPGKGLEWIGYIYYSGSTNYNPSLKSRVTISVDTSKNQFSLKLSSVTAADTAVYYCARTGYIPMDVWGQGTTVTVSS
VL: EIVLTQSPDFQSVTPKEKVTITCRASQSIGSNLHWYQQKPDQSPKLLIKYVSQSFSGVPSRFSGSGSGTDFTLTINSLEAEDAATYYCHQSRSLPYTFGQGTKLEIK
notes: also called antibody from hybridoma clone SV018.20B12.1D1
B3: SV017.47D7.1C2 (antibody, V domains shown)
VH: EVQLVESGGGLVQPGGSLRLSCAATGFTFSSYWMHWVRQGPGKGLVWVSRINSDGTSTVYADSVKGRFTISRDNAKNTLYLQMNSLRAEDTAVYYCARGRGIMTYWGQGTLVTVSS
VL: DIQMTQSPSSLSASVGDRVTITCRASQDIGSWLTWYQRKPEKAPKSLIYAASSLQSGVPSRFSGSGSGTDFTLTISSLQPEDFATYYCQQYKSYPLTFGQGAKLEIK
notes: also called antibody from hybridoma clone SV017.47D7.1C2
B4: SV017.51F4.1A1 (antibody, V domains shown)
VH: B3 VH
VL: B3 VL
notes: also called antibody from hybridoma clone SV017.51F4.1A1
B5: SV017.50G3.1B1 (antibody, V domains shown)
VH: B3 VH with G16E, Y80F
VL: B3 VL
notes: also called antibody from hybridoma clone SV017.50G3.1B1
B6: SV017.13B12.1E1 (antibody, V domains shown)
VH: B3 VH with Y80H
VL: B3 VL
notes: also called antibody from hybridoma clone SV017.13B12.1E1

Experiments:
[1] = molecular target: T1, membrane-bound human MSLN (human, UniProt Q13421 296-598); test: cell ELISA, CHOK1 cells expressing human MSLN
T1 construct: the assay field says which; The construct expressed in CHOK1 is not described further; also called HuMSLN-CHOK1; human mesothelin on CHOK1 cells
T1 sequence (Q13421 other isoform, or with tags, fused parts or gaps limits assumed): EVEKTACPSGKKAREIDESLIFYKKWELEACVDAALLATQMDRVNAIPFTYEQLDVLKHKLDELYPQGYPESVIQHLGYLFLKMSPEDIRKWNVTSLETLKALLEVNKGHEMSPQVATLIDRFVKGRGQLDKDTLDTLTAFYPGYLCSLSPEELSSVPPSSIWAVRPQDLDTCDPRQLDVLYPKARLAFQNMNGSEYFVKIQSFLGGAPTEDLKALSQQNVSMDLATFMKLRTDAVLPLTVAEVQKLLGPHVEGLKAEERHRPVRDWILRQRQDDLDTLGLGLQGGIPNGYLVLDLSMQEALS
Procedure: (§1) The wells of a 96-well plate are seeded with sufficient cells to provide 95-100% confluency on day 0 (the day of assay). On day 0 the culture medium is removed and 50 μL/well hybridoma supernatant fraction, or purified antibody starting at 10 μg/mL or equal molar concentration and serially diluted 4 or 5-fold in CHO medium (DMEM F12, 10% Bovine serum). The plate is then incubated for an hour at room temperature or a temperature up to 37° C. Next, about 50 μL of a pre-determined concentration of ligand is added to the wells of the plate and the plate incubated for 30 minutes at room temperature or a temperature up to 37° C. The plate wells are washed with ELISA wash (PBS containing 0.05% polysorbate 20. Next, 50 μL/well of HRP-conjugated anti-species IgG diluted 1:2000 in CHO medium is added to the wells and the plate incubated for an hour at room temperature or a temperature up to 37° C. HRP conjugated anti-species IgG include goat anti-mouse IgG-HRP (Southern Biotech, cat #1030-05), goat anti-rat IgG-HRP (Southern Biotech, cat #3030-05), and goat anti-human IgG-HRP (Jackson Immunologics, cat #109-036-098). The plate wells are washed with the ELISA wash. Next, 50 μL/well TMB substrate (1 step Ultra TMB-ELISA: Thermo Fisher, Cat #34029) is added to the wells. When the blank starts to turn blue, 50 μL/well TMB stop solution (KPL, Cat #50-85-06) is added to the wells and A450-A620 is measured on an ELISA reader.
(§2) The OVACAR3 cell line is a human ovarian cancer cell line that expresses high levels of human MSLN.

[2] = molecular target: T2, membrane-bound rhesus MSLN (Rhesus (Macaca mulatta)); test: cell ELISA, CHOK1 cells expressing rhesus MSLN
T2 construct: The expressed construct is not described further; also called Rh MSLN-CHOK1; RhMSLN
T2 chain: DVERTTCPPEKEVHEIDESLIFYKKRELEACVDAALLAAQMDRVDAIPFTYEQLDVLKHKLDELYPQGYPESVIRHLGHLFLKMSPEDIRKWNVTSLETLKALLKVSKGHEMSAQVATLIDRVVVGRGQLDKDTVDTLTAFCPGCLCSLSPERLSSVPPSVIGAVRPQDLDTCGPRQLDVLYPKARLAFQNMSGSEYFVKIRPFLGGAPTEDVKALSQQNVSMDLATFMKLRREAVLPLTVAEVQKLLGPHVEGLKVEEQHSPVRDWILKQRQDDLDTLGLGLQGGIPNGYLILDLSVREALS
Procedure: as §1, §2

[3] = molecular target: T3, soluble human MSLN (87BGR) (human, UniProt Q13421 296-598); test: protein ELISA, coated soluble human MSLN (87BGR)
T3 construct: Purified soluble protein coated on the ELISA plate; also called HuMSLN (87BGR); purified human MSLN
T3 sequence (Q13421 other isoform, or with tags, fused parts or gaps limits assumed, form in doubt): as the sequence (Q13421 other isoform, or with tags, fused parts or gaps limits assumed) above
Procedure: (§3) The wells of a 96-well plate are coated with 50 μL of purified human or rhesus MSLN in a carbonate coating buffer (5.3 g NaHCO₃ and 3.2 g Na₂CO₃ in 2 L H₂0) or HyClone Dulbecco's phosphate buffered saline (DPBS; Hyclone, cat #SH30028.02) at a concentration of 1-2 μg/mL and incubated overnight at 4° C. Afterwards, the plate wells are washed with well wash solution (phosphate buffered saline containing 0.05% polysorbate 20). The plate wells are then blocked by adding Super Block Blocking Buffer T20 (Thermo Scientific, #37536) for 1-2 hours at room temperature followed by washing with well wash solution. Next, 50 μL/well hybridoma supernatant fraction (used neat), or purified antibody starting at 10 μg/mL and serially diluted 4- or 5-fold in ELISA buffer (DPBS+0.1% BSA+0.05% polysorbate 20 is added to the wells. The plates are incubated for an hour at room temperature, then the wells washed with well wash solution and 50 μL/well horseradish […] (HRP) conjugated anti-species IgG diluted 1:3000-5000 in ELISA buffer is added to the wells. HRP conjugated anti-species IgG include goat anti-mouse IgG-HRP (Southern Biotech, cat #1030-05), goat anti-rat IgG-HRP (Southern Biotech, cat #3030-05), and goat anti-human IgG-HRP (Jackson Immunologics, cat #109-036-098). The plates are incubated for an hour at room temperature, then the wells washed with well wash and 50 μL/well ABTS Peroxidase Substrate (Kirkgaard & Perry Laboratories) is added to the wells. After 10 minutes the OD at 405 nm is measured using an ELISA plate reader.
as §2

[4] = molecular target: T1, membrane-bound human MSLN; test: cell ELISA, OVCAR3 cells (endogenous human MSLN)
[5] = molecular target: T4, soluble rhesus MSLN (87BIC) (Rhesus (Macaca mulatta)); test: protein ELISA, coated soluble rhesus MSLN (87BIC)
T4 construct: Purified soluble protein coated on the ELISA plate; also called Rh MSLN (87BIC); purified rhesus MSLN
T4 chain: T2 chain
Procedure: as §3, §2

Binder	EC50 [1]	binding result [2]	EC50 [3]	EC50 [4]	EC50 [2]	EC50 [5]
B1	0.01 µg/mL	no binding	1.37 µg/mL	–	–	–
B2	0.01 µg/mL	no binding	0.11 µg/mL	0.01 µg/mL	–	–
B3	0.03 µg/mL	–	0.03 µg/mL	0.01 µg/mL	0.26 µg/mL	0.01 µg/mL
B4	0.04 µg/mL	–	0.03 µg/mL	0.01 µg/mL	0.26 µg/mL	0.02 µg/mL
B5	0.05 µg/mL	–	0.04 µg/mL	0.01 µg/mL	0.33 µg/mL	0.02 µg/mL
B6	0.02 µg/mL	–	0.04 µg/mL	0.01 µg/mL	0.23 µg/mL	0.02 µg/mL
